According to patent US20190169241A1 (BOARD OF TRUSTEES OF THE UNIVERSITY OF ILLINOIS, published 2019):
No end group written: not given here.

Assays:
[1] = molecular target: T1, vascular endothelial growth factor receptor 2 (VEGFR2), endogenous, from HUVEC lysates (human, UniProt P35968 20-1356); test: pull-down from HUVEC lysate with recombinant protein on beads, anti-VEGFR2 western blot
T1 construct: Endogenous receptor from cell lysate, detected by western blot with anti-VEGFR2 antibody or by mass spectrometry; also called Flk-1
Description: The DUFs were identified from amino acid sequence similarity on the Pfam database. It has been previously shown that both domains of DUF3694 directly bind recombinant VEGFR2 in vitro (Yamada, et al. (2007) Biochemistry 46:10039-45). […] DUF2 was divided into 3 parts, DUF2A (residues 1111-1167), DUF2B (residues 1168-1216), and DUF2C (residues 1217-1281) and each part was expressed as a recombinant protein in bacteria. VEGFR2 was abundantly expressed in HUVECs; thus, cell lysate from HUVECs was incubated with these recombinant proteins on beads, and VEGFR2 binding was determined using the anti-VEGFR2 antibody.

Tie2 = Tie2 (UniProt Q02763 23-1124, limits assumed); test: pull-down with peptide on streptavidin beads, mass spec analysis
Par1 = molecular target: T2, Par1 (UniProt P25116 22-425, limits assumed); test: as above
T2 sequence (looked up): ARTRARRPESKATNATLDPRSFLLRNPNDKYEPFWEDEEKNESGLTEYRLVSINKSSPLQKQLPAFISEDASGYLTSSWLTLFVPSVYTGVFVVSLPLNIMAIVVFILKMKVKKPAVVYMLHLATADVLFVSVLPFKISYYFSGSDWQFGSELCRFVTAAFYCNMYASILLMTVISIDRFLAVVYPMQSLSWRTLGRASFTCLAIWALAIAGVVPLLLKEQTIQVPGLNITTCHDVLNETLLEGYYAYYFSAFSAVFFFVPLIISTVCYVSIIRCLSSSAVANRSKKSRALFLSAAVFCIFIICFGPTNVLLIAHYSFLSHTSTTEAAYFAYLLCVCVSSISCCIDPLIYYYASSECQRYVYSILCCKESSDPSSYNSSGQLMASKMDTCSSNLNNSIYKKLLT

[2] = molecular target: T3, VEGFR2, recombinant cytosolic domain (Fisher Scientific) (UniProt P35968 789-1356, limits assumed); test: SPR (BIACORE), peptide on avidin-coated chip, recombinant cytosolic domain as analyte
T3 construct: domain: cytosolic domain; Analyte in the BIACORE experiment

[3] = molecular target: T1, vascular endothelial growth factor …; test: pull-down of endogenous VEGFR2 from HUVEC lysate with the recombinant truncation on beads, western blot with anti-VEGFR2 antibody
[4] = molecular target: PDGFRβ, endogenous, found in the pull-down by mass spectrometry (UniProt P09619 33-1106, limits assumed); test: pull-down with peptide on streptavidin beads, mass spec analysis
[5] = molecular target: PDGFRα, endogenous, found in the pull-down by mass spectrometry (UniProt P16234 24-1089, limits assumed); test: as above
[6] = molecular target: EGFR, endogenous, found in the pull-down by mass spectrometry (UniProt P00533 25-1210, limits assumed); test: as above
[7] = molecular target: T1, vascular endothelial growth factor …; test: pull-down from HUVEC lysates, peptide on streptavidin beads

T1 sequence (P35968 20-1356 limits assumed): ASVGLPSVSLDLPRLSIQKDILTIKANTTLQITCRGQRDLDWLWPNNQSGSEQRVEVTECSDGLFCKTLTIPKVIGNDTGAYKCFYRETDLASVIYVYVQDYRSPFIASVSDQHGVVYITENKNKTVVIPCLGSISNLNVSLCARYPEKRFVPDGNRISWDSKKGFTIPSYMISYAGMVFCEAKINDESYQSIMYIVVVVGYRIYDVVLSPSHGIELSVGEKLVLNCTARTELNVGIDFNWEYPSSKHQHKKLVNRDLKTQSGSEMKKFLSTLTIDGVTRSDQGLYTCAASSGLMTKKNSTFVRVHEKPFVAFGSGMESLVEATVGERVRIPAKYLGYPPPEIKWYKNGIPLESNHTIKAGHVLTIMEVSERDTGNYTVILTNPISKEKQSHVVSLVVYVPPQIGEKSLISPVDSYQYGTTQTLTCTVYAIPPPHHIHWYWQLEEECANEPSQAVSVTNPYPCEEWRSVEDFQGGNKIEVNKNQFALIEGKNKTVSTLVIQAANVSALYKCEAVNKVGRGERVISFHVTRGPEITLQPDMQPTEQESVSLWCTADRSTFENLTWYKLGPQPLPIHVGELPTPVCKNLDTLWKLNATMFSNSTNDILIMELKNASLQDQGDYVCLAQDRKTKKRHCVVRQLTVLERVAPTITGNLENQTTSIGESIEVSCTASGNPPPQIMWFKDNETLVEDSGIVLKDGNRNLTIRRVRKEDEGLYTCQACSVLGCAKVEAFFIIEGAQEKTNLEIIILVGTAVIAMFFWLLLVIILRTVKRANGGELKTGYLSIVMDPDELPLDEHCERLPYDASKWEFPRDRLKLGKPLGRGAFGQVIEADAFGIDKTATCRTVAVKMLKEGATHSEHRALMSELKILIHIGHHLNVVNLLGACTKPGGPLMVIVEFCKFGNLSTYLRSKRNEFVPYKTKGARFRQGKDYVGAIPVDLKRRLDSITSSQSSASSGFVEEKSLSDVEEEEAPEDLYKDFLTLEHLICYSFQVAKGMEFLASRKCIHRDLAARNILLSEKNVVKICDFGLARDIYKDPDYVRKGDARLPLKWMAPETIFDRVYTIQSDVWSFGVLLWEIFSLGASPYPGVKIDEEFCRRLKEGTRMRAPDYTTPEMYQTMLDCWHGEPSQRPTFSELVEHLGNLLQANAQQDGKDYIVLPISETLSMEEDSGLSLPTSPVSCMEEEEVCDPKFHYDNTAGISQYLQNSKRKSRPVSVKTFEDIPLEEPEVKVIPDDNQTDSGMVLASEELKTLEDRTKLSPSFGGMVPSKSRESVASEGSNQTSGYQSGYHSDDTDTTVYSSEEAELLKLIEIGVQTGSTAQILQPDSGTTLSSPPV
T3 sequence (P35968 789-1356 limits assumed): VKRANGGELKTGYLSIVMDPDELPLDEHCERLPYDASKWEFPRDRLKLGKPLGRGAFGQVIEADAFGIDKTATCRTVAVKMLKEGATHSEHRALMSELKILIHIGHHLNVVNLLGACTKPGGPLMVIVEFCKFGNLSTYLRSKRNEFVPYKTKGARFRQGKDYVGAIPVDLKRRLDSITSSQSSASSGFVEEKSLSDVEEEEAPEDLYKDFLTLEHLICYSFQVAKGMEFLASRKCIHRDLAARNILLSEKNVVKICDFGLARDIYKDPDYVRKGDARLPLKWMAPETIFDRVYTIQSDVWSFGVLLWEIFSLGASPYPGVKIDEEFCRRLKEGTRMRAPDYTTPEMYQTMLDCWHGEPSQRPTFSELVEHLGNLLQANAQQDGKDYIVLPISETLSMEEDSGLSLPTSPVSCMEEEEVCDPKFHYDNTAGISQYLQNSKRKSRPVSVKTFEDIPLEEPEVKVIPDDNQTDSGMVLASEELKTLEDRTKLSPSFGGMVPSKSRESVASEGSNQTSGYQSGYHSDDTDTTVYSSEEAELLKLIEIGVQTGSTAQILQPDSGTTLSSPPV
Chain of PDGFRα, endogenous, found in the pull-down by mass spectrometry (P16234 24-1089 limits assumed): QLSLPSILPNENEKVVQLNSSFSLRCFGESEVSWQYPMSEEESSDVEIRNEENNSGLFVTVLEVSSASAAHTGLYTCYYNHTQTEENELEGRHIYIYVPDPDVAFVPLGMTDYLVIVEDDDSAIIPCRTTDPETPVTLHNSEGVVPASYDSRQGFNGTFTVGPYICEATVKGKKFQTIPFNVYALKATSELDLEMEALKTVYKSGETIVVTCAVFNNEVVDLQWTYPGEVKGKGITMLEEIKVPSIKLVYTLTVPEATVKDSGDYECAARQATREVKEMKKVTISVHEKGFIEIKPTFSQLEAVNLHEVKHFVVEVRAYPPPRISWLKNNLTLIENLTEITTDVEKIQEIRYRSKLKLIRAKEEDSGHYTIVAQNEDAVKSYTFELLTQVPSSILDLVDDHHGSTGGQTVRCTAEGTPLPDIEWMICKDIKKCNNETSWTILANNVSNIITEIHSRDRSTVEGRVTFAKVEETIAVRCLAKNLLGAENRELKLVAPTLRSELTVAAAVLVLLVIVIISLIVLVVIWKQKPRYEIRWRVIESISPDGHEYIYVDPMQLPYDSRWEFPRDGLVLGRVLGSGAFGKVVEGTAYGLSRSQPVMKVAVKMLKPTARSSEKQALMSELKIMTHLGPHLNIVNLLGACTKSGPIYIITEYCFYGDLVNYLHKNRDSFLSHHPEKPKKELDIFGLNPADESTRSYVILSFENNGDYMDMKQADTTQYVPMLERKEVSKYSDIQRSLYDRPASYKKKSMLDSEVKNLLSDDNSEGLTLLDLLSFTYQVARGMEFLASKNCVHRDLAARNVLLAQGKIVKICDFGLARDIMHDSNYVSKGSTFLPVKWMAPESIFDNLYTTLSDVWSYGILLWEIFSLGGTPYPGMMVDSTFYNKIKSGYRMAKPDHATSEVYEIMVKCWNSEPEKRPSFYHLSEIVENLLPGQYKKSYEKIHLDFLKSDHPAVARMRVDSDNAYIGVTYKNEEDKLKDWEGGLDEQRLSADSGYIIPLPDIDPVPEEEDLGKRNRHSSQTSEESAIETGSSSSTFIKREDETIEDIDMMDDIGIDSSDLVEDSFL
Chain of PDGFRβ, endogenous, found in the pull-down by mass spectrometry (P09619 33-1106 limits assumed): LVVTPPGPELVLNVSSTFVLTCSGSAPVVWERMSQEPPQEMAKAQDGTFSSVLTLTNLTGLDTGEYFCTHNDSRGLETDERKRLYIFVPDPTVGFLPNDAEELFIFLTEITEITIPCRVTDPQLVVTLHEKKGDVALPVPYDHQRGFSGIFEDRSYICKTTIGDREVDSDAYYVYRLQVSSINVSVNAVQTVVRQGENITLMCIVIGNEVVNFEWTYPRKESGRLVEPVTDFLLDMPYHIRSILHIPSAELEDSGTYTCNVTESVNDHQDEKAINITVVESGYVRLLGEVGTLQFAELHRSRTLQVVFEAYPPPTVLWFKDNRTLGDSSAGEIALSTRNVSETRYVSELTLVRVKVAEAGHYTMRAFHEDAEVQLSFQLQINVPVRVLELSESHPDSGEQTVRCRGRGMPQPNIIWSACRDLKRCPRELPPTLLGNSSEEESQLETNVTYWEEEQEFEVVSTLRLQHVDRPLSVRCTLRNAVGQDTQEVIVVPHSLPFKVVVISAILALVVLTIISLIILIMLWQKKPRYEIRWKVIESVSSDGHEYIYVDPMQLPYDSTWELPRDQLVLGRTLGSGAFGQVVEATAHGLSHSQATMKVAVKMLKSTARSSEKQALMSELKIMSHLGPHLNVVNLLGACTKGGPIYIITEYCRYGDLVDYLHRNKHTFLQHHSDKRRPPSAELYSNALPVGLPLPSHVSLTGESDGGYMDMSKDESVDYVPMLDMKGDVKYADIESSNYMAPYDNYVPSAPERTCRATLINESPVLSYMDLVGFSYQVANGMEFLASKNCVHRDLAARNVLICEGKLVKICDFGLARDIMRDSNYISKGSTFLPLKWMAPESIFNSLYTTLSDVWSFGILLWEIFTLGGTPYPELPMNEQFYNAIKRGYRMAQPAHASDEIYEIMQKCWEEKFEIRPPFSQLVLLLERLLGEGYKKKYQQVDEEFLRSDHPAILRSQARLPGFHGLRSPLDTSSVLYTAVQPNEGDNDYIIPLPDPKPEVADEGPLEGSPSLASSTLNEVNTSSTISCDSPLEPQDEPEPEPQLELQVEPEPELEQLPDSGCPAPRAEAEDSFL

B1: DUF2A (residues 1111-1167 of KIF13B), recombinant protein from bacteria (other, human, UniProt Q9NQT8 1111-1167, looked up)
chain: QKLVSKRDKTEDDADREAQLLEMRLTLTEERNAVMVPSAGSGIPGAPAEWTPVPGME
notes: range 1111-1167; not shown: His-tag and S-tag
B1: no binding [1].

B2: DUF2B (residues 1168-1216 of KIF13B), recombinant protein from bacteria (other, human, UniProt Q9NQT8 1168-1216, looked up)
chain: THIPVIFLDLNADDFSSQDNLDDPEAGGWDATLTGEEEEEFFELQIVKQ
notes: range 1168-1216; not shown: His-tag and S-tag
B2: no binding [1].

B3: Biotin-DUF2C5 peptide (synthetic, residues 1238-1260 of KIF13B with a biotin-tag) (peptide)
peptide: SRGTPVDERLFLIVRVTVQLSHP
modifications: also: biotin-tag (position not given here)
notes: Immobilised on streptavidin beads (pull-down, mass spectrometry) or on an avidin-coated BIACORE chip
With B3 the binding result (Tie2) was “no binding”, the binding result (Par1) was “no binding” and the Kd [2] was 5.5 nM.

B4: C7 (peptide, not shown: small tags and cut ends)
peptide: ADMQLVLRKRICVNVHGRQGF
notes: the sheet prints only 'C7'; also called DUF2C7; DUF C7 (1261-1281 aa)
B4: no binding [3].

RVRASELRSFSRMLAGDPGCSPG (peptide, UniProt Q9NQT8 1650-1672, looked up, also: biotin-tag (position not given here), range 1650-1672) [CT23 (residues 1650 to 1672 of KIF13B), synthetic negative control peptide with a biotin-tag]: no binding [4]; no binding [5]; no binding [6]. RVRASELRSFSRMLAGDPGCSPG (peptide, UniProt Q9NQT8 1650-1672, looked up, also: biotin-tag (position not given here), range 1650-1672) [CT23 (residues 1650 to 1672 of KIF13B), synthetic negative control peptide with a biotin-tag]: no binding [2]; no binding [7].

B5: C4 (peptide, UniProt Q9NQT8 1226-1251, looked up)
single chain: SWDSAVHGCPQLSRGTPVDERLFLIV
notes: recombinant truncated mutant expressed in bacteria with His-tag and S-tag; the sheet prints only 'C4'; also called DUF2C4; DUF C4 (1226-1251 aa)
B5: no binding [3].

B6: C1 (peptide, UniProt Q9NQT8 1202-1240, looked up)
single chain: GEEEEEFFELQIVKQHDGEVKAEASWDSAVHGCPQLSRG
notes: recombinant truncated mutant expressed in bacteria with His-tag and S-tag; the sheet prints only 'C1'; also called DUF2C1; DUF C1 (1202-1240 aa)
B6: no binding [3].
